{
  "source": "patent US20220235138A1",
  "about": "“CAR-T CELLS TARGETING IL-1RAP AND THEIR USE IN ACUTE MYELOID LEUKEMIA (AML)” (ETABLISSEMENT FRANCAIS DU SANG, priority 2019, published 2022)",
  "key": {"[1]": {"biological_target": "T1, recombinant IL-1RAP biotinylated protein (Homo sapiens, UniProt Q9NPH3)", "T1 sequence (Q9NPH3 21-359 limits assumed)": "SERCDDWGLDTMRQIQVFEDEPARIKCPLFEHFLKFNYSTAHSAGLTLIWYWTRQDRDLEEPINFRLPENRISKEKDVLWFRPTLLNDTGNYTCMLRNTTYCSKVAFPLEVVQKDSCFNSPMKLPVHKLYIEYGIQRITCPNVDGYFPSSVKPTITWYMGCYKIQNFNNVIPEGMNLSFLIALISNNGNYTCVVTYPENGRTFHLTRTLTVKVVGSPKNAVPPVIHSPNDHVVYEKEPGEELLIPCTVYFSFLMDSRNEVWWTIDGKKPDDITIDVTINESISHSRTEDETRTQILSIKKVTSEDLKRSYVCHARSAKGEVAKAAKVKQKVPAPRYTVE", "experiment": "Flow cytometry detection of cell surface CAR with biotinylated recombinant IL-1RAP", "format": "binding", "settings": "for amount of recombinant IL-1RAP protein required for recruiting maximum of cells: single experiment", "method": "CEM cell line or primary T cells were transduced either with Mock or CAR IL-1RAP. Cells were then incubated in presence of increasing amount of recombinant IL-1RAP labelled with biotin. Staining was performed with an anti-biotin fluorescent antibody and analyzed by flow cytometry. Percentage of Biotin+/CD19+ CEM or T-cells plotted against amount of labelled biotin recombinant protein. Dot plots of cytometry analyze were provided for representative staining, including maximum. Untransduced T cells (C0) or Mock T cells were used as control.\nAdditional analysis using serial dilution of biotinylated IL-1RAP protein (from 20 ng to 2.4 pg/ml) and FACS analysis allow to detect either IL-1RAP CAR transduced CEM T cell line or primary T-cells."}, "[2]": {"system": "iCASP9/AP1903 suicide system", "experiment": "Optical microscopy of transduced 293T cells after CID AP1903 exposure", "format": "cell-based, human", "settings": "CID AP1903 20 nM, 24 h (10 nM)"}, "[3]": {"settings": "transduced primary T-cells (GMTC)"}},
  "data": [
    {"molecule": "IL-1RAP CAR: chimeric antigen receptor: #E3C3 scFv in frame with CD28-4.1BB-CD3z signaling chain; tested in transduced CEM, primary T or 293T cells (protein, left off: small tags and cut ends, chimeric antigen receptor: #E3C3 scFv in frame with CD28-4.1BB-CD3z signaling chain; tested in transduced CEM, primary T or 293T cells) scFv: QVQLQQPGAELMMPGASVKVSCEASGYTFTDSWMHWVKQRPGQGLEWIGAIDPSDSYTTYNQKFTGKATLSVDESSNTAYMQLSSLTSEDSAVYYCARYYSGSNYISPFPYWGQGTLVTVSAGGSGGGGSGGGGSVDMESQIQVFVFVFLWLSGVDGDIVMTQSHKFMSTSVGDRVTITCKASLDVSTAVAWYQQKPGQSPKLLIYSASYRYTGVPDRFTGSGSGTDFTFTISSVQAEDLAVYYCQQHYSPPFTFGSGTNLEIK", "values": [
      {"measurement": "CAR recognition and binding of IL-1RAP protein", "setting": "[1]", "result": "CAR specific recognition and binding of IL-1RAP protein"},
      {"measurement": "maximum percentage of Biotin+/CD19+ cells", "setting": "[1]; transduced CEM T cell line", "result": 85.8, "unit": "%"},
      {"measurement": "amount of recombinant IL-1RAP protein required for recruiting maximum of cells", "setting": "[1]; transduced CEM T cell line", "result": 1.25, "unit": "ng"},
      {"measurement": "maximum percentage of Biotin+/CD19+ cells", "setting": "[1]; [3]", "result": 68.5, "unit": "%"},
      {"measurement": "amount of recombinant IL-1RAP protein required for recruiting maximum of cells", "setting": "[1]; [3]", "result": 0.15, "unit": "ng"},
      {"measurement": "sensitivity of transduced 293T cell culture to CID", "setting": "[2]", "result": "sensitive to the CID"}
    ]}
  ]
}
